The target in assay [1] is T1, human LGR4 transgene (human, UniProt Q9BXB1 25-951).
T1 construct: whole, on cells; Overexpressed in HEK293T cells with N-terminal HA tag, V2 receptor tail and eGFP; also tested as lysate; also called hLGR4; LGR4-eGFP
Nature of the assay: western blot of lysates of HEK293T cells expressing the LGR transgenes. For orientation: A western blot detects proteins with antibodies after separation by electrophoresis.

Assay [2] has as its target T2, murine LGR4 transgene (mouse, UniProt A2ARI4 25-951).
T2 construct: whole, on cells; Overexpressed in HEK293T cells with N-terminal HA tag, V2 receptor tail and eGFP; also tested as lysate; also called mLGR4
Described as above.

Assay [3] addresses T3, human LGR6 transgene (human, UniProt Q9HBX8 25-967).
T3 construct: whole, on cells; Overexpressed in HEK293T cells with N-terminal HA tag, V2 receptor tail and eGFP; also tested as lysate; also called hLGR6; LGR6-eGFP
T3 sequence (looked up): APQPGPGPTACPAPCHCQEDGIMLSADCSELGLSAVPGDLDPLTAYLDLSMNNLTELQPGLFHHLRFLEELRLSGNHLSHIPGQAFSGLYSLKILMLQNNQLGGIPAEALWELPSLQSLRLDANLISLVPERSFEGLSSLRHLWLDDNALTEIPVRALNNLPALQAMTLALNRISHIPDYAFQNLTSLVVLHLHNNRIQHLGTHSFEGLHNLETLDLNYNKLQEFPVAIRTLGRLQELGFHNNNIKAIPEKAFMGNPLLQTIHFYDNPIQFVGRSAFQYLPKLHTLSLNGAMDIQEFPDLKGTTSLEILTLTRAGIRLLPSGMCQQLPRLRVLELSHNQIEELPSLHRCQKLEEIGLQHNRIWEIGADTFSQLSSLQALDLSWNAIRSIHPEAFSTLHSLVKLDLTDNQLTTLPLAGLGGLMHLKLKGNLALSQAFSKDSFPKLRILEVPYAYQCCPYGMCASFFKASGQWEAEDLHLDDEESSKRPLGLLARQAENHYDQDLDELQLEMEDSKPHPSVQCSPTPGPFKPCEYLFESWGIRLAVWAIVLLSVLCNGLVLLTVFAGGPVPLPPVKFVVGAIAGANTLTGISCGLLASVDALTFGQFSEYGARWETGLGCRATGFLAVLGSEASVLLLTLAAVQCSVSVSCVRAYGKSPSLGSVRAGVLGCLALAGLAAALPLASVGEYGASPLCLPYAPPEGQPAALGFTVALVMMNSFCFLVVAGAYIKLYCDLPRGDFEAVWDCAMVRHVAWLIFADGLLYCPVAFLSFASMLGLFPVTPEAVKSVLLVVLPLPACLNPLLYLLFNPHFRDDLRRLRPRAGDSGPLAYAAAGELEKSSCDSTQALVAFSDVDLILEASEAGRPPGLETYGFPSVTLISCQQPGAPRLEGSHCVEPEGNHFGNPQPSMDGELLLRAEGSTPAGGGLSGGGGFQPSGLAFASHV
The description is as above.

Assay [4] has as its target T4, murine LGR6 transgene (mouse, UniProt Q3UVD5 23-967).
T4 construct: whole, on cells; also called mLGR6
T4 sequence (looked up): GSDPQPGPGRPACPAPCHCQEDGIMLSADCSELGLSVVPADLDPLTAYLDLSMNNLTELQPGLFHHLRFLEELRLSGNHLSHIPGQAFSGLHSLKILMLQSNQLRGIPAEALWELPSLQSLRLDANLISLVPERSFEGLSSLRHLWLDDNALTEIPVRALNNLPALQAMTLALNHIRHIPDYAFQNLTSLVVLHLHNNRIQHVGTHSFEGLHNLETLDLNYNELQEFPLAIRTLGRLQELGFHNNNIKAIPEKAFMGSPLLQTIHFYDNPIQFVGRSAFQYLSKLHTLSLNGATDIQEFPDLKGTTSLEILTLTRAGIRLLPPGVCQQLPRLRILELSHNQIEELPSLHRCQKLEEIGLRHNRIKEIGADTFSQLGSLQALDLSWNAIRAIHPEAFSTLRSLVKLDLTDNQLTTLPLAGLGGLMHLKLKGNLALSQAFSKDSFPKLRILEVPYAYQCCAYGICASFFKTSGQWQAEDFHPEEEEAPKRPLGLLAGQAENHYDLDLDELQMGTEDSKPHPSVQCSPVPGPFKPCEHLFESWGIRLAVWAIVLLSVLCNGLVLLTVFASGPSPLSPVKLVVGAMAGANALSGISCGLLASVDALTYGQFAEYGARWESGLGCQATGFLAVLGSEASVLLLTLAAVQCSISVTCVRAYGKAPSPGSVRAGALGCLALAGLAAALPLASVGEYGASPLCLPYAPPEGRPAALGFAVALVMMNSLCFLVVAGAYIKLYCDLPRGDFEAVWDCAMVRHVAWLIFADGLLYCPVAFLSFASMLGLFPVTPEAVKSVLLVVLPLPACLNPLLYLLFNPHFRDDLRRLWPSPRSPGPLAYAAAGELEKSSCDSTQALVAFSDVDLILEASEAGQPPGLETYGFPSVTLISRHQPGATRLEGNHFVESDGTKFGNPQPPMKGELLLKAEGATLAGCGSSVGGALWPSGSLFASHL
The description is as above.

Assay [5] deals with T5, RAD-displayed Fragment 1A of human LGR5 (human).
T5 construct: also called Frag1A
T5 sequence (O75473 22-37, looked up): GSSPRSGVLLRGCPTH
Nature of the assay: bio-layer interferometry (Octet), captured RAD-displayed fragment, 10 µM Fragment 1 peptide included. On the technique in general: BLI is a label-free optical method that tracks binding on a fibre tip over time.

The target in assay [6] is T5, RAD-displayed Fragment 1A of human LGR5. Nature of the assay: bio-layer interferometry (Octet), captured RAD-displayed fragment.

B1: α-LGR5 clone 1 (antibody, mouse IgG1, kappa, V domains shown)
VH: QVQLQQPGAELVKPGASVKLSCKASGYTFTSYWMQWVKQRPGQGLEWIGEIDPSDYYTNYNQKFKGKATLTVDTSSSTAYMQLSSLTSEDSAVYYCARSLSGYVDYWGQGTTLTVSS
VL: DIQMTQSTSSLSASLGDRVTINCRASQDIRNRLNWYQQKPDGTVKLLISYRSRLQSGVPSRFSGSGSGTEYSLTISNLEQEDIATYFCQQGNTLPPTFGGGTKLEVRR
notes: Murine monoclonal antibody from hybridoma; also called hybridoma clone 1; antibody 1
The term Kd denotes the free concentration of one partner at which half of the binding sites on the other are occupied at equilibrium, for simple one-to-one binding. Read a low Kd as tighter binding. Take B1: the binding result in assay [1], in assay [2], in assay [3] and in assay [4] was “no binding” in each case. Also, the Kd in assay [5] was 0.76 nM.

B2: α-LGR5 clone 4 (antibody, mouse IgG2b, kappa, V domains shown)
VH: QVQLQQPGAELVKPGASVKLSCKASGYTFTDYWMQWVKQRPGQGLEWIGEIDPSDSYTNYNQKFQGKATLTVDTSSSTAYIQLSSLTSDDSAVYYCARSLSGSVDYWGQGTTLTVSS
VL: DIQMTQTTSSLSASLGDRVTISCRASQDISNRLNWYQQKPDGTVKLLISYRSRLQSGVPSRFSGSGSGTDYSLTITNLEQEDIATYFCQQGNTLPPTFGGGTKLEVRR
notes: Murine monoclonal antibody from hybridoma; also called hybridoma clone 4; antibody 4
As to B2, the binding result in assay [1], in assay [2], in assay [3] and in assay [4] was “no binding” in each case. This molecule yielded a Kd in assay [5] of 1.4 nM.

B3: α-LGR5 clone 3 (antibody, mouse IgG1, kappa, V domains shown)
VH: QVQLQQPGAELVKPGASVKLSCKASGYTFTSYWMQWVKQRPGQGLEWIGEIDPSDSYSNYNQKFKGKATLTVDTSSSTAYMQLSSLTSEDSAVYYCARSLSGYVDYWGQGTTLTVSS
VL: DIQMTQTTSSLSASLGDRVTISCRASQDISNRLNWYQQKPDGTVKLLISYRSRLQSGVPSRFSGSGSGTDYSLTISNLEEEDIATYFCQQGNTLPPTFGGGTKLEVRR
notes: Murine monoclonal antibody from hybridoma; also called hybridoma clone 3; antibody 3
For the molecule B3, the binding result in assay [1], in assay [2], in assay [3] and in assay [4] was “no binding” in each case. Also, the Kd in assay [5] turned out to be 1 nM.

B4: α-LGR5 variant 4 (antibody, human IgG1, kappa, V domains shown)
VH: QVQLVQSGAEVKKPGASVKVSCKASGYTFTNYWMQWVRQAPGQGLEWIGEIDPSDSYTNYNQKFQGRVTLTVDTSTSTAYMELSSLRSEDTAVYYCARSLSGYVDYWGQGTTVTVSS
VL: EIVMTQSPATLSLSPGERATLSCRASQDISNRLNWYQQKPGQAVRLLISYRSRRHTGIPARFSGSGSGTDYTLTISSLEPEDFAVYYCQQGNSLPPTFGGGTKLEIKR
notes: Humanized antibody; also called α-LGR5v4; clone 2.4
In assay [6], B4 had an equilibrium dissociation constant (Kd) of 2 nM.

B5: hybridoma clone 12 (antibody, V domains shown)
VH: EVQLQQSGPELVKPGASVKISCKASGYTFTDYYMNWVKQSHGKSLEWIGDINPNNGGTIYNQKFKGKATLTVDKSSSTAYMELRSLTSEDSAVYYCASGYLFDYWGPGTTLTVSS
VL: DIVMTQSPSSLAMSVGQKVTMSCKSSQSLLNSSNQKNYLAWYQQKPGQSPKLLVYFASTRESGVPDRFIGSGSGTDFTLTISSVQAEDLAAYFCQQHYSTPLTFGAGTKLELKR
notes: Murine antibody; also called antibody 12
As to B5, the binding result in assay [1], in assay [2], in assay [3] and in assay [4] was “no binding” in each case.

The values are drawn from patent US20250257126A1 (CAMBRIDGE ENTERPRISE, published 2025).
